Test results taken from patent US20040091953.

System: T1, peptide corresponding to the first 22 amino acids of histone 4, chemically acetylated in vitro
T1 sequence: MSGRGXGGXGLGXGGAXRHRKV

hSIRT6
NAD-dependent deacetylase activity: showed no detectable activity
